Data reported in US20220098269A1 (IMMATICS BIOTECHNOLOGIES, published 2022).

The binders below were run against T1, HLA-B*44:05 (human) (assay: UV-ligand exchange, anti-b2m ELISA; peptide exchange yield grade).
T1 construct: Peptide-receptive MHC class I monomer after UV cleavage of a UV-sensitive ligand
Excerpt: (§1) Candidate peptides for T cell based therapies according to the present invention were further tested for their MHC binding capacity (affinity). The individual peptide-MHC complexes were produced by UV-ligand exchange, where a UV-sensitive peptide is cleaved upon UV-irradiation and exchanged with the peptide of interest as analyzed. Only peptide candidates that can effectively bind and stabilize the peptide-receptive MHC molecules prevent dissociation of the MHC complexes. To determine the yield of the exchange reaction, an ELISA was performed based on the detection of the light chain (β2m) of stabilized MHC complexes. The assay was performed as generally described in Rodenko et al. (Rodenko et al., 2006).
(§2) 96 well MAXISorp plates (NUNC) were coated over night with 2 μg/ml streptavidin in PBS at room temperature, washed 4× and blocked for 1h at 37° C. in 2% BSA containing blocking buffer. Refolded HLA-A*02:01/MLA-001 monomers served as standards, covering the range of 15-500 ng/ml. Peptide-MHC monomers of the UV-exchange reaction were diluted 100-fold in blocking buffer. Samples were incubated for 1 h at 37° C., washed four times, incubated with 2 μg/ml HRP conjugated anti-β2m for 1h at 37° C., washed again and detected with TMB solution that is stopped with […]. Absorption was measured at 450 nm. Candidate peptides that show a high exchange yield (preferably higher than 50%, most preferred higher than 75%) are generally preferred for a generation and production of antibodies or fragments thereof, and/or T cell receptors or fragments thereof, as they show sufficient avidity to the MHC molecules and prevent dissociation of the MHC complexes.

| Binder | peptide exchange yield [%] |
| --- | --- |
| DEAVRDITW | ≥ 75 |
| KPREEQYDSTY | ≥ 75 |
| DESKYTWSW | ≥ 75 |
| GEYRCQTDL | ≥ 75 |
| TEGDFTKEASTY | 50 to 75 |
| AERDLDVTI | ≥ 75 |
| AQDTTYLWW | ≥ 75 |
| KENQDHSYSL | ≥ 75 |
| DETAAYKIM | 50 to 75 |
| QEVDISLHY | ≥ 75 |
| KEVDDTLLVNEL | ≥ 75 |
| AESLAVHDI | 50 to 75 |
| DETHTLQF | ≥ 75 |
| LENMYDLTF | ≥ 75 |
| AEFFDYTVRTL | ≥ 75 |
| TDFTKIASF | ≥ 75 |
| DETIWYVRF | ≥ 75 |
| RDATASLW | ≥ 75 |

These binders were tested against T2, HLA-B*08:01 (human) in the same assay as above.
T2 construct: Peptide-receptive MHC class I monomer after UV cleavage of a UV-sensitive ligand
Excerpt: as §1, §2

| Binder | binding result |
| --- | --- |
| DVSDKITFM | binds |
| DILDRTGHQL | binds |

These binders were tested against T3, HLA-A*03:01 (human) in the same assay as above.
T3 construct: Peptide-receptive MHC class I monomer after UV cleavage of a UV-sensitive ligand
Excerpt: as §1, §2

| Binder | peptide exchange yield [%] |
| --- | --- |
| HLYYDVTEK | 50 to 75 |
| RLPAADFTRY | 20 to 50 |
| IVRDLSCRK | 50 to 75 |
| NLYDWSASY | 20 to 50 |
| RLWDFTMNAK | 50 to 75 |
| KAYDQTHLY | ≥ 75 |

The binders below were run against T4, HLA-B*07:02 (human) in the same assay as above.
T4 construct: Peptide-receptive MHC class I monomer after UV cleavage of a UV-sensitive ligand
Excerpt: as §1, §2

| Binder | peptide exchange yield [%] |
| --- | --- |
| GEPTSDITLL | 50 to 75 |
| HPFGYDLTL | ≥ 75 |
| HPDLTSMTF | ≥ 75 |
| LPFFTDKTLSF | ≥ 75 |
| APFKDVTEY | 50 to 75 |
| FPYYLKIDY | 50 to 75 |
| SPKIFDSSW | 50 to 75 |
| VPRNQDESV | ≥ 75 |
| NPADISVAL | ≥ 75 |

These binders were tested against T5, HLA-A*02:01 (human) in the same assay as above.
T5 construct: Peptide-receptive MHC class I monomer after UV cleavage of a UV-sensitive ligand
Excerpt: as §1, §2

| Binder | binding result |
| --- | --- |
| SLIDITHGF | binds |

What follows are binders tested against T6, HLA-A*24:02 (human) in the same assay as above.
T6 construct: Peptide-receptive MHC class I monomer after UV cleavage of a UV-sensitive ligand
Excerpt: as §1, §2

| Binder | peptide exchange yield [%] |
| --- | --- |
| VYVDTTELAL | ≥ 75 |
| AFDKTIVKL | 20 to 50 |
| HLFYDVTVF | 20 to 50 |
| RQDESYLNF | 20 to 50 |
| IYPDGTLLI | ≥ 75 |
| IFVPTDRSL | 20 to 50 |
| RYVNDYTNSF | ≥ 75 |
| VYLDASKVPGF | ≥ 75 |
| VYIDDSVEL | ≥ 75 |
| EYQDFSTLF | ≥ 75 |
